Test results from IntAct's records for PubMed 24075010.

B1: Myocyte-specific enhancer factor 2 (Drosophila melanogaster (Fruit fly)), P40791 (parent)
chain: MGRKKIQISRITDERNRQVTFNKRKFGVMKKAYELSVLCDCEIALIIFSSSNKLYQYASTDMDRVLLKYTEYNEPHESLTNKNIIEKENKNGVMSPDSPEAETDYTLTPRTEAKYNKIDEEFQNMMQRNQMAIGGAGAPRQLPNSSYTLPVSVPVPGSYGDNLLQASPQMSHTNISPRPSSSETDSGGMSLIIYPSGSMLEMSNGYPHSHSPLVGSPSPGPSPGIAHHLSIKQQSPGSQNGRASNLRVVIPPTIAPIPPNMSAPDDVGYADQRQSQTSLNTPVVTLQTPIPALTSYSFGAQDFSSSGVMNSADIMSLNTWHQGLVPHSSLSHLAVSNSTPPPATSPVSIKVKAEPQSPPRDLSASGHQQNSNGSTGSGGSSSSTSSNASGGAGGGGAVSAANVITHLNNVSVLAGGPSGQGGGGGGGGSNGNVEQATNLSVLSHAQQHHLGMPNSRPSSTGHITPTPGHDKYEGYPYRALMGHNPRWNLNFAGAPSSDQDVRLAAVAVQQQQQQPHQQQQLGDYDAPNHKRPRISGGWGT
partner: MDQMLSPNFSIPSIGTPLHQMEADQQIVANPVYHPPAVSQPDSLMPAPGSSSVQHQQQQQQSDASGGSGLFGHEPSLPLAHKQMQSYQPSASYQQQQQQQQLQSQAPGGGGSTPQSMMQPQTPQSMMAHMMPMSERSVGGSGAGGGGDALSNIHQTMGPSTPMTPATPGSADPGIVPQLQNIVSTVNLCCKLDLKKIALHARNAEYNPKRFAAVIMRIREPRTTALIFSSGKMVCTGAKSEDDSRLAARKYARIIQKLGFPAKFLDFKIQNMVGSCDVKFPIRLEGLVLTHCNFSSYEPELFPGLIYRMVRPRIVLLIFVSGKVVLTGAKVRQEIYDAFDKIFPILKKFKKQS

Variants of: B1
Details: with tbp_drome Tbp
With T20E the “effect of a mutation on the interaction” value was “decreasing interaction strength”.
In the case of T20A, the “effect of a mutation on the interaction” value is reported as “increasing interaction strength”.
